Data on 1 protein can be found in PMC9525683, “Structural analysis of human CEACAM1 oligomerization” (Communications Biology, 2022).

The series concerns the molecule itself. Put plainly: crystal structure; tagless hCEACAM1 IgV at 15 mg/ml; sitting drop, 25 °C; 0.2 M ammonium sulfate, 0.1 M HEPES pH 7.5, 25% w/v PEG 3350; space group C121; 2.2 Å; three molecules in the asymmetric unit.

B1: human CEACAM1 IgV domain, wild type (tagless) (domain or fragment)
chain: QLTTESMPFNVAEGKEVLLLVHNLPQQLFGYSWYKGERVDGNRQIVGYAIGTQQATPGPANSGRETIYPNASLLIQNVTQNDTGFYTLQVIKSDLVNEEATGQFHVY
notes: carcinoembryonic antigen-related cell adhesion molecule 1 (CEACAM1), human, N-terminal IgV domain, non-glycosylated; The 15N-labelled form (M9 medium) was used for NMR, the unlabelled form for the crystals and UV spectroscopy; also called hCEACAM1 IgV; hCEACAM1 WT
B1: the binding result is “binds”.
